Experimental data: paper PMC5615437, “A novel bifunctional acetyl xylan esterase/arabinofuranosidase from Penicillium chrysogenum P33 enhances enzymatic hydrolysis of lignocellulose” (Microbial Cell Factories, 2017)

Substrate: CC(=O)Oc1ccc([N+](=O)[O-])cc1
Assay: 4-nitrophenol release, Lineweaver-Burk plot
Type: biochemical, Penicillium chrysogenum
Details: pH 7, 40 °C, pNPA 0.2-2 mM

B1: rPcAxe (Penicillium chrysogenum) (protein)
chain: AASSGCGKQPTLTNGVHTINGRQYILKVPDNYDSNKPHHLVFGLHWRGGNMNSVANGDSIQPWYGLESRAQGSAILVSPDGKNAGWANTNGEDVALIDAIIQQVEGDLCVDSSSRFATGFSWGGGMSYALACSRAKEFKAVSVLSGGLISGCEGGYDPIAYLGIHGIDDQVLPIDEGVTLANKFVGNNKCQPTNIGKPASGSGGFVRSDFQGCSKPVSFIAYDGGHVGAPLGVGSSLAPDATWEFFMAA
In the case of B1, the Km is reported as 465 µM.
